Results published in article PMC1762375.

Experiments:
Assay in all cases: two-hybrid; yeast strains L40 or PJ69-4A; β-galactosidase quantitative liquid assays, fold activation with respect to the empty vector, at least four independent protein extracts
[1] = molecular target: Cno NH, LexA bait fusion (Drosophila)
[2] = molecular target: Cno-MP, LexA bait fusion (Drosophila) (UniProt Q24279)
[3] = molecular target: DSH-FLN, LexA bait fusion (Drosophila) (UniProt P51140)
UniProt P51140, sequence (P51140 whole entry, the tested form may be a part): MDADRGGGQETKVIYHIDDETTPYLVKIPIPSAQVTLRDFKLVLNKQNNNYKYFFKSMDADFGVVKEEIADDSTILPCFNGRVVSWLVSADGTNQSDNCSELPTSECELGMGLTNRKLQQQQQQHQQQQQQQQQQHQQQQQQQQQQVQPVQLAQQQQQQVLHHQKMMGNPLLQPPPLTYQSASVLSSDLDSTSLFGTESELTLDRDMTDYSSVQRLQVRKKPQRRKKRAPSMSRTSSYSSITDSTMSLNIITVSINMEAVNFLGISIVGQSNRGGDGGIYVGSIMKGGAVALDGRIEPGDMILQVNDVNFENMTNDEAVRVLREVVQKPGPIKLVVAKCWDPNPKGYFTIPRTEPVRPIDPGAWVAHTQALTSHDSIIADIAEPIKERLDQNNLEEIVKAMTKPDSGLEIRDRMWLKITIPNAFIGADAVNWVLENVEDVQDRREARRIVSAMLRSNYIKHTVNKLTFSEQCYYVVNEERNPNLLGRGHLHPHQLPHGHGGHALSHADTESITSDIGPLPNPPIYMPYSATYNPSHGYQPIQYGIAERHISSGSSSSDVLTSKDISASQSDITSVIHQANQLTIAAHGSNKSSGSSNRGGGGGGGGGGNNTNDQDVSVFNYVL

UniProt Q24279, sequence (Q24279 entry or part of it): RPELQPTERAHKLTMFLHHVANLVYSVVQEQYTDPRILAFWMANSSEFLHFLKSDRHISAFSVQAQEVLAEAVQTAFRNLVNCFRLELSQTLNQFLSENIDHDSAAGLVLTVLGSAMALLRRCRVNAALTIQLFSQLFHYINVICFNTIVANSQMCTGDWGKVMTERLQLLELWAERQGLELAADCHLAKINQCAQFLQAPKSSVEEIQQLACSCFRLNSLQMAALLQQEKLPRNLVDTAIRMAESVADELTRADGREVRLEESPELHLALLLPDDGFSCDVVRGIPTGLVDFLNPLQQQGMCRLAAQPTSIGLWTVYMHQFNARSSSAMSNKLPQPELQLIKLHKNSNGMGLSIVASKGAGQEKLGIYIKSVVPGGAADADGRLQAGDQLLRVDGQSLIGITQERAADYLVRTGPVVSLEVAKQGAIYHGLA

| fold activation (β-galactosidase, against the empty vector) (fold activation) [1] | fold activation (β-galactosidase, against the empty vector) (fold activation) [2] | fold activation (β-galactosidase, against the empty vector) (fold activation) [3] | Substance |
| --- | --- | --- | --- |
| 20 | 20 | 3 | Notch-ICN2, prey fusion (domain or fragment) |
| 40 | 40 |  | Notch-ICN1, prey fusion (domain or fragment) |
